Biological target: biotinylated CH848 DS SOSIP Trimer (HIV-1)
Assay: SPR

B1: DH270.I5.6 Fab (Fab, V domains shown)
VH: QVQLVQSGAEVKKPGASVKVSCKASGYTFTDYYIHWVRQAPGQGLEWMGWINPNTGRTNSAQKFQGRVTMTRDTSISTAYMELSRLRSDDTAVYYCARGGWIGLYYDSSGYPNFDYWGQGTLVTVSS
VL: QSALTQPASVSGSPGQSITISCTGTSYDVGSYNLVSWYQQHPGKAPKLMIYEVSKRPSGVSNRFSGSKSGNTASLTISGLQAEDEADYYCCSYAGSSTVVFGGGTKLTVL
B1 gave a fold improvement of the binding affinity relative to the UCA of 8 fold.
